Biological target: the molecule itself
Assay: SEC

B1: CUB1-EGF-CUB2 fragment of C1r (domain or fragment, UniProt P00736 18-307, looked up)
chain: SIPIPQKLFGEVTSPLFPKPYPNNFETTTVITVPTGYRVKLVFQQFDLEPSEGCFYDYVKISADKKSLGRFCGQLGSPLGNPPGKKEFMSQGNKMLLTFHTDFSNEENGTIMFYKGFLAYYQAVDLDECASRSKSGEEDPQPQCQHLCHNYVGGYFCSCRPGYELQEDTHSCQAECSSELYTEASGYISSLEYPRSYPPDLRCNYSIRVERGLTLHLKFLEPFDIDDHQQVHCPYDQLQIYANGKNIGEFCGKQRPPDLDTSSNAVDLLFFTDESGDSRGWKLRYTTEII
modifications: N-linked carbohydrate at two sites (density seen in the crystals)
stoichiometry N: 2

B2: CUB1-EGF-CUB2 fragment of C1s (domain or fragment)
chain: EPTMYGEILSPNYPQAYPSEVEKSWDIEVPEGYGIHLYFTHLDIELSENCAYDSVQIISGDTEEGRLCGQRSSNNPHSPIVEEFQVPYNKLQVIFKSDFSNEERFTGFAAYYVATDINECTDFVDVPCSHFCNNFIGGYFCSCPPEYFLHDDMKNCGVNCSGDVFTALIGEIASPNYPKPYPENSRCEYQIRLEKGFQVVVTLRREDFDVEAADSAGNCLDSLVFVAGDRQFGPYCGHGFPGPLNIETKSNALDIIFQTDLTGQKKGWKLRYHGDPM
modifications: N-linked carbohydrate at one site (density seen in the crystals)
stoichiometry N: 2
